Results as given in US11400139B2, “Anti-NET compounds for treating and preventing fibrosis and for facilitating wound healing” (THE CHILDREN'S MEDICAL CENTER CORPORATION, priority 2015, dated 2022).
“Also recorded” adds a separate entry of the source.

B1: DNase 1: DNase 1 (dornase alfa, Genentech), which disrupts NETs (protein, UniProt P24855 23-282, looked up)
Deoxyribonuclease-1: LKIAAFNIQTFGETKMSNATLVSYIVQILSRYDIALVQEVRDSHLTAVGKLLDNLNQDAPDTYHYVVSEPLGRNSYKERYLFVYRPDQVSAVDSYYYDDGCEPCGNDTFNREPAIVRFFSRFTEVREFAIVPLHAAPGDAVAEIDALYDVYLDVQEKWGLEDVMLMGDFNAGCSYVRPSQWSSIRLWTSPTFQWLIPDSADTTATPTHCAYDRIVVAGMLLRGAVVPDSALPFNFQAAYGLSDQLAQAISDHYPVEVMLK

Columns and labels:
[1] = test system: neutrophil extracellular traps; conditions: Subramanian et al.; cited from earlier work
PAD4 expressing cells = conditions: Subramanian et al.; cited from earlier work
NETs [2] = conditions: pre-digestion of NETs with DNase 1, in vitro (Farrera and Fadeel); cited from earlier work
NETs [3] = test: Full-thickness excisional skin wound healing with systemic DNase 1 treatment; format: in vivo, mouse
Procedure: Mice were induced to be diabetic using multiple low dose injections of streptozotocin (STZ). Six to 8-week old male C57BL/6 or PAD4^−/− mice were randomized into treatment groups of either vehicle or STZ according to their blood glucose levels and body weight at baseline. Mice were fasted for 5 hours and then injected with vehicle or STZ (i.p., 50 mg/kg per day, pH 4, dissolved in 0.1 M sodium citrate buffer) for 5 consecutive days. Fed blood glucose level was measured starting 1 week afterwards. Mice with fed blood glucose level above 300 mg/dL were considered diabetic and used for further experiments. Pancreatic islets were stained for insulin using a rabbit polyclonal anti-insulin antibody (1:500, Cell Signaling, Cat. no. 4590).
Full-thickness excisional wounds were made on the dorsal skin under aseptic conditions as described^22. Mice were anesthetized with ketamine and xylazine (100 mg/kg and 10 mg/kg, respectively, i.p.). Hair was removed and the skin was cleaned with 70% ethanol and betadine. A fold of the dorsal skin was then picked up along the midline, placed over dental wax and punched through with a 4-mm disposable sterile biopsy punch (Miltex) such that 2 wounds were generated in one punch. The procedure was repeated, thus 4 wounds were made per mouse. The mice were housed individually after wounding. In experiments involving diabetic mice, all mice were provided ad libitum with antibiotics (2.5% Sulfatrim) in drinking water. Wounds were digitally photographed using a Sony Camcorder and total wound areas were calculated using ImageJ software. Wound area was expressed as a percentage compared to the area on day 0 when the wounds were made.
Neutrophil recruitment and re-epithelialization were examined in H&E-stained sections. Wounds were cut in half, fixed overnight in zinc fixative and embedded in paraffin. The tissue was sectioned at 10 μm and stained with H&E. Images were acquired with the Zeiss Axiovision software using an Axioplan light microscope coupled to a color Zeiss HRc camera.
Normoglycemic and diabetic WT mice, randomized by blood glucose levels before assigning to treatments, were injected with 10 μg i.v. and 50 μg i.p. DNase 1 (dornase alfa, Genentech) 30 min before wounding and then 50 μg i.p. every 12 hours until wound collection on day 3. Control mice were injected with vehicle (8.77 mg/mL sodium chloride and 0.15 mg/mL calcium chloride)^40.

[4] = normoglycemic WT mice, three days post wounding

Row | Molecule | formation of neutrophil extracellular traps [1] | cell killing (PAD4 expressing cells) | clearance of NETs by macrophages (NETs [2]) | enhancement of re-epithelialization (NETs [3]; STZ-induced diabetic WT mice on antibiotics, day 3 post wounding) | promotion of wound area reduction (NETs [3]; STZ-induced diabetic WT mice on antibiotics, day 3 post wounding, 10 μg i.v. and 50 μg i.p. before wounding, then 50 μg i.p. every 12 hours) | wound healing (wound area reduction and re-epithelialization), in words (NETs [3]; WT mice, diabetic and normoglycemic) | further benefit in wound healing (NETs [3]; diabetic PAD4−/− mice, day 3 post wounding) | enhancement of re-epithelialization (NETs [3]; [4]) | neutrophil recruitment to the wound (NETs [3]; [4]) | wound area versus vehicle (NETs [3]; [4])
1 | CC(C)(C)n1nnc([C@H](CCCNC(=N)CCl)NC(=O)c2ccc(-c3ccccc3)cc2)n1 [BTT-Cl-amidine, biphenyl tetrazole tert-butyl Cl-amidine] | blocks the formation | enhanced cell killing | – | – | – | – | – | – | – | –
2 | B1 | – | – | accelerated their clearance | > 75% | > 20% | accelerated wound healing; also recorded: facilitated wound area reduction | did not provide further benefits; also recorded: did not provide additional benefits | ~54% | not affected | smaller than in those treated with vehicle
